Assay results reported in paper PMC7895464 (Journal of molecular biology, 2020).
Where two headings read alike, the source gives them in different places.

Tests used:
[1] = molecular target: ClpS*^fl (fluorescein-labelled variant of ClpS containing one cysteine) (E. coli) (UniProt P0A8Q6); assay: fluorescence polarisation
ClpA [2] = molecular target: T1, ClpA (E. coli, UniProt P0ABH9 1-758); assay: fluorescence polarisation
T1 sequence (looked up): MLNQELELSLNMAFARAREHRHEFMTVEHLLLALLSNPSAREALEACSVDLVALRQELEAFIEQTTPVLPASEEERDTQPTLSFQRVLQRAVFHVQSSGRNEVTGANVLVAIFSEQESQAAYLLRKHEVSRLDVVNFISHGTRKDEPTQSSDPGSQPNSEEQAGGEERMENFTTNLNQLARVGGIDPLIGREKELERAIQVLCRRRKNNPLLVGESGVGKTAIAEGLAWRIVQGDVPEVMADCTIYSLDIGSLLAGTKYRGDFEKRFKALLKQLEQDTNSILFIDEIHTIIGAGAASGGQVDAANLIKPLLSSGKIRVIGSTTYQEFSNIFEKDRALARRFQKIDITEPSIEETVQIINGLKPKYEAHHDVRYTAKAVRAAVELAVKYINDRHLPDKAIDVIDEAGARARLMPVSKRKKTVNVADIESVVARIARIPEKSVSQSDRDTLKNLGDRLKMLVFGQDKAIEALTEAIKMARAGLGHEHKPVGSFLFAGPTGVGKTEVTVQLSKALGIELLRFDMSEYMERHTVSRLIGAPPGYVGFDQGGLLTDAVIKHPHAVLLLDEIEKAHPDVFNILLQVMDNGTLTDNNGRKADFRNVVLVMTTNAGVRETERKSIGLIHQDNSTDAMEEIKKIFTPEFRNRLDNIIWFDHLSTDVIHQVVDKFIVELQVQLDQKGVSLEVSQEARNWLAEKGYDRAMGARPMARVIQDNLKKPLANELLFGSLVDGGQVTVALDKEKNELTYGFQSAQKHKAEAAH

[3] = molecular target: T2, ClpA-ClpS complex (ClpAS; printed as ClpAPS in the text) (E. coli, UniProt P0ABH9 1-758; P0A8Q6 2-106); assay: fluorescence polarisation
T2 sequence 1: T1 sequence (looked up)
T2 sequence 2: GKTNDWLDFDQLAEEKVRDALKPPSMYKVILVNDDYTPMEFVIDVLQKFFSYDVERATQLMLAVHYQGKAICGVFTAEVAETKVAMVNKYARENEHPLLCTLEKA

ClpA [4] = molecular target: T1, ClpA
ClpA [5] = molecular target: T1, ClpA; assay: fluorescence polarisation; remark: listed apart in the source

B1: ClpA (enzyme)
chain: T1 sequence (looked up)
Q: With B1 as the binder, how does the Kd [1] read?
A: 160 nM

B2: λ*^fl-ssrA (fluorescein-labelled ssrA-tagged DNA-binding domain of λ repressor, λ(1-93)^A21C-ssrA) (domain or fragment, bacteriophage λ | E. coli)
chain: MSTKKKPLTQEQLEDARRLKCIYEKKKNELGLSQESVADKMGMGQSGVGALFNGINALNAYNAALLAKILKVSVEEFSPSIAREIYEMYEAVSAANDENYALAA
modifications: fluorescein (fluorescein-5-maleimide) on the single cysteine
Q: What does the source list for B2?
A: Kd (ClpA [2]): 740 nM; Kd [3]: ~8000 nM

B3: ClpS^ΔN17 (domain or fragment, E. coli, UniProt P0A8Q6 18-106, looked up)
chain: VRDALKPPSMYKVILVNDDYTPMEFVIDVLQKFFSYDVERATQLMLAVHYQGKAICGVFTAEVAETKVAMVNKYARENEHPLLCTLEKA
Q: B3 was tested. Which Kd (ClpA [4]) did it give?
A: ~160 nM

B4: ClpS (natural protein, E. coli)
chain: T2 sequence 2
Q: Does B4 bind (ClpA [5])?
A: binds
